Source: patent US20240287172A1 (SCIRHOM, published 2024)
Numbering of substitutions follows the chain as printed.

Target: T1, hiR2-FL-L539A-T7 (human, UniProt Q6PJF5 1-856)
T1 construct: on MEF-DKO cells
T1 sequence: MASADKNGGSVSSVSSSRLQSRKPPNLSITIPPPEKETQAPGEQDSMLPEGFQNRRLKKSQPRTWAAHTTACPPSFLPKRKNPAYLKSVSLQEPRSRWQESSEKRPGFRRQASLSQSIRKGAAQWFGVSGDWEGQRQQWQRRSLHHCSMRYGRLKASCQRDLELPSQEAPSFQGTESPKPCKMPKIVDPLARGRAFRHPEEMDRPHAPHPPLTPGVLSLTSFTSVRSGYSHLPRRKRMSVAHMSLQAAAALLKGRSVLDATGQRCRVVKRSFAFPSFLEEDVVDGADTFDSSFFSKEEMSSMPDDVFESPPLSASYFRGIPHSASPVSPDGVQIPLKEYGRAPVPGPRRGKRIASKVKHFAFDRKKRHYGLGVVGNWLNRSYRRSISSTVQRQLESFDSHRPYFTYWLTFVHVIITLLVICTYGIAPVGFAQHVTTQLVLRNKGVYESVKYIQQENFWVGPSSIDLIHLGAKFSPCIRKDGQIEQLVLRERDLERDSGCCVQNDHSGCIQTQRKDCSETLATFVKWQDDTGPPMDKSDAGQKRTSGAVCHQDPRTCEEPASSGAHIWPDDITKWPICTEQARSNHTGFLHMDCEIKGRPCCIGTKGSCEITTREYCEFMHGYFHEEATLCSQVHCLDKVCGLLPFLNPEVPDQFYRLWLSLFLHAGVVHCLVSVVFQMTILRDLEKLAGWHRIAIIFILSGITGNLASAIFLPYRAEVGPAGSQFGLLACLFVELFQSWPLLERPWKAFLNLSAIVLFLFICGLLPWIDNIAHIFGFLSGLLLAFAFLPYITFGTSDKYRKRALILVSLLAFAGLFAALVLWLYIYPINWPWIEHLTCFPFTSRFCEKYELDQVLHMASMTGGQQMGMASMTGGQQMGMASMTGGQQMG
Assay: FACS, MEF-DKO cells, 3 µg/ml

B1: antibody 5 (antibody, V domains shown)
VH: QVTLKESGPGILQPSQTLSLTCSFSGFSLSTFGMGVGWIRQPSGKGLEWLAHIWWDDEKYYNSALKSRLTISKATSKNQAFLKIANVDTADTATYYCARISNYGSNYWYFNVWGTGTTVTVSS
VL: QVVLTQSPALMSASPGEKVTMTCSAGSSVSCMYWYQQKPGSSPRVLIYDTSNLASGVPARFTGSGSGTSYSLTISRMEAEDAASYYCQQWNSYPLTFGAGTKLELK
notes: mouse IgG, kappa light chain; also called clone #5; purified antibody 5
- loss of binding vs wild type: ≥ 95%

B2: antibody 42 (antibody, V domains shown)
VH: B1 VH with F24L, M34R, S63P, A74D, A80V, K83R, S101Q, N111D
VL: LIVLTQSPAIMSASPGEKVTMTCGATSRISYMFWYQQKPGSSPRVLIYDTSNLASGVPVRFSGSGSGTSYSLTISRVEAEDVATYYCQQWNSYPLTFGAGTKLELK
notes: mouse IgG, kappa light chain; also called clone #42; purified antibody 42
- loss of binding vs wild type: ≥ 95%

B3: antibody 44 (antibody, V domains shown)
VH: B1 VH with G44E, E58D, S63P, A74D, A80I, A85T, D91E, A98S, S101G, N111D
VL: QIVLTQSPAVMSASPGEKVTMTCTASSSVYYMYWYQQTPGSSPRLLIYDTSNLASGVPVRFSGSGSGTSYSLTISRMEAEDAATYYCQQWNTYPLTFGAGTKLELK
notes: mouse IgG, kappa light chain; also called clone #44; purified antibody 44
- loss of binding vs wild type: ≥ 95%

B4: antibody 43 (antibody, V domains shown)
VH: B1 VH with T3A, P42S, H52N, E58D, S63P, A74D, T75A, S101G, N111D
VL: B2 VL with L1Q, K18R, G24S, T26N, F33Y, V45L, V77M, V82A, Y86N, N91S
notes: mouse IgG, kappa light chain; also called clone #43; purified antibody 43
- loss of binding vs wild type: ≥ 95%

B5: antibody 22 (antibody, V domains shown)
VH: B1 VH with A80V
VL: B1 VL with C31Y, S84T
notes: mouse IgG, kappa light chain; also called clone #22; purified antibody 22
- loss of binding vs wild type: ≥ 95%

B6: antibody 34 (antibody, V domains shown)
VH: QVTLKESGPGILQPSQTLSLTCSFSGFSLSTFSLGVGWIRQSSGKGLEWLAHIWWDDEKYYNPALKSRLTISKDTSKNQVFLKIANVDAADTATYYCARAYYSKSYYALDYWGQGTSVTVSS
VL: DIQMTQSPSSLSASLGERVSLTCRASQEISGYLSWLQQKPDGTIKRLIYAASTLDSGVPKRFSGSRSGSDYSLAISSLESEDFADYYCLQYANFPFTFGSGTKLEIK
notes: mouse IgG, kappa light chain; also called clone #34; purified antibody 34
- loss of binding vs wild type: ≥ 95%

B7: antibody 48 (antibody, V domains shown)
VH: QVQLQQSGTELVRPGTSVKVSCKASGYAFTNYLIEWVKQRPGQGLEWIGVINPGSGFTKYNEKFKGKATLTADKSSSTVYMHLSSLTSEDSAVYFCARGLYRAMDYWGQGTSVTVSS
VL: DIQMTQSPASQSASLGESVTITCLASQTIATWLAWYQQKPGKSPQLLIYGATTLADGVPSRFSGGGSGTKFSFKISSLQAEDFVSYYCQQLYSTPYTFGGGTKLEIK
notes: mouse IgG, kappa light chain; also called clone #48; purified antibody 48
- loss of binding vs wild type: ≥ 30%

B8: antibody 16 (antibody, V domains shown)
VH: QVTLKESGPGILQPSQTLSLTCSFSGFSLSTFALGVGWIRQPSGRGLEWLAHIWWDDDKYYNPALKSRLTISKDTSKNHVFLKIANVDTADTATYYCARITTYYYGMDYWGQGTSVTVSS
VL: DIVLSQSPATLSVTPGDSVSLFCRASQSIGNHLHWYQQESHASPRLLIKYASQSISGIPSRFSGSGSGTDFTLSINSVETEDFGMYFCQQSYNWPLTFGAGTKLELK
notes: mouse IgG, kappa light chain; also called clone #16; purified antibody 16
- loss of binding vs wild type: ≥ 30%

B9: antibody 3 (antibody, V domains shown)
VH: QVTLKESGPGILQPSQTLSLTCSFSGFSLTTFAMGIGWVRQPSGKGLEWLAHIWWDGEKYNNPVLKSRLTISKDTSKNQVFLRIANVDTPDTATYYCARISSIYYIIDNWGQGTSVTVSS
VL: B8 VL with S5T, D17H, F22S, G30S, H32N, Q38K, E39K, A42E, A51V
notes: mouse IgG, kappa light chain; also called clone #3; purified antibody 3
- loss of binding vs wild type: ≥ 95%
